PMC11381518, “Human cell surface-AAV interactomes identify LRP6 as blood-brain barrier transcytosis receptor and immune cytokine IL3 as AAV9 binder” (Nature Communications, 2024)

What was measured:
Assay in all cases: pull-down; prey AAVs mixed with His-tagged bait protein and Ni-NTA resin in DPBS with 20 mM imidazole, 1 h at 4 °C; eluate analysed by Western blot with anti-VP1/VP2/VP3 and anti-6xHis
Details in all cases: both partners purified
AAV.CAP-Mac capsid = target: T1, AAV.CAP-Mac capsid (adeno-associated virus 9, UniProt Q6JC40 1-736, VR VIII AA587-590 AQ - - - - - - - AQ to AQLNTTKPIAQ)
T1 construct: AAV9 capsid protein VP1 with an insertion in VR-VIII; numbers count on VP1; source: HEK293 cells, triple transfected, purified (iodixanol gradient); copies: 60

AAV9 capsid = target: T2, AAV9 capsid (adeno-associated virus 9, UniProt Q6JC40 1-736)
T2 construct: AAV9 capsid protein VP1; numbers count on VP1; Assembled capsid with a packaged genome; also called AAV9 (parent of vectors below); source: HEK293 cells, triple transfected, purified (iodixanol gradient); copies: 60

AAV9-X1.1 capsid = target: T3, AAV9-X1.1 capsid (adeno-associated virus 9, UniProt Q6JC40 1-736, VR IV AA452-458 NGSGQNQ to DGAATKN | VR VIII AA587-590 AQ - - - - - - - AQ to …)
T3 construct: AAV9 capsid protein VP1 with changes in VR-IV and VR-VIII; numbers count on VP1; also called AAV-X1.1; source: HEK293 cells, triple transfected, purified (iodixanol gradient); copies: 60

Measured: binding result

B1: human Adeno-Associated Virus Receptor (AAVR) PKD2 domain (AA 401-498) tagged with 6xHis (domain or fragment)
chain: EPRKNRPPIAIVSPQFQEISLPTTSTVIDGSQSTDDDKIVQYHWEELKGPLREEKISEDTAILKLSKLVPGNYTFSLTVVDSDGATNSTTANLTVNKA
notes: human AAVR (KIAA0319L), PKD2 domain, AA 401-498; source: E. coli BL21(DE3)-RIPL, purified (Ni-NTA)
binds: AAV.CAP-Mac capsid | AAV9 capsid | AAV9-X1.1 capsid
